Laboratory results from paper PMC3642240, “Cloning, Expression and Characterization of 3-Hydroxyisobutyrate Dehydrogenase from Pseudomonas denitrificans ATCC 13867” (PLoS ONE, 2013).

Experiments:
Assay in all cases: purified protein
purified protein [1] = substrate: COC(=O)[C@@H](C)CO; conditions: 2 mM NAD+, 100 mM Tris-HCl pH 9.0, 30 °C
purified protein [2] = substrate: CC(N)(CO)C(=O)O; conditions: 2 mM NAD+, 100 mM Tris-HCl pH 9.0, 30 °C
purified protein [3] = substrate: O=C(O)CCO; conditions: 2 mM NAD+, 100 mM Tris-HCl pH 9.0, 30 °C
purified protein [4] = substrate: C[C@@H](CO)C(=O)O; conditions: 2 mM NAD+, 100 mM Tris-HCl pH 9.0, 30 °C
purified protein [5] = substrate: NC(=O)c1ccc[n+]([C@@H]2O[C@H](COP(=O)(O)OP(=O)(O)OC[C@H]3O[C@@H](n4cnc5c(N)ncnc54)[C@H](O)[C@@H]3O)[C@@H](O)[C@H]2O)c1; conditions: 3 mM 3-hydroxypropionate, NAD+ 0.025-4 mM, 100 mM Tris-HCl pH 9.0, 30 °C, varied: cofactor

B1: 3HIBDH-IV (Pseudomonas sp. ATCC 13867) (protein)
chain: MRIGFIGLGNMGGPMAANLLKAGFDLSVFDLSAKAVAAAVALGARALASPAEVARDDVEVIITMLPAAAHVKQVFLGEDGLLANVQPGVLLIDSSTIDPLNAREVSAAALAHGNPMLDAPVSGGTAGAAAGTLTFMVGGEPADFERARPALAAMGKNIVHCGGTGNGQVAKVANNLLLGISMIGVAEAMSLGVKLGMDADVLAGIINTSSGRCWSSEVNNPLTGAPAARGYSGGFGTDLMLKDLGLASEAARQVRQPVLLGALAQQLFQTFSNQGNGQLDFSAIVKLYEQG
- Km (purified protein [1]): 25142 ± 1667 µM
- Vmax (purified protein [1]): 67 µmol/min/mg
- kcat (purified protein [1]): 35.8 ± 3.3 s⁻¹
- kcat/Km (purified protein [1]): 1430 ± 231 M⁻¹ s⁻¹
- Km (purified protein [2]): 24180 ± 3169 µM
- Vmax (purified protein [2]): 12.4 µmol/min/mg
- kcat (purified protein [2]): 6.62 ± 0.475 s⁻¹
- kcat/Km (purified protein [2]): 275 ± 16 M⁻¹ s⁻¹
- Km (purified protein [3]): 1055 ± 35 µM
- Vmax (purified protein [3]): 20.2 µmol/min/mg
- kcat (purified protein [3]): 10.8 ± 0.945 s⁻¹
- kcat/Km (purified protein [3]): 10200 ± 699 M⁻¹ s⁻¹
- Km (purified protein [4]): 178 ± 10 µM
- Vmax (purified protein [4]): 151 µmol/min/mg
- kcat (purified protein [4]): 80.8 ± 1.1 s⁻¹
- kcat/Km (purified protein [4]): 455000 ± 33000 M⁻¹ s⁻¹
- Km (purified protein [5]): 164 ± 37 µM
- Vmax (purified protein [5]): 12.6 µmol/min/mg
- kcat (purified protein [5]): 6.72 ± 0.126 s⁻¹
- kcat/Km (purified protein [5]): 42400 ± 10900 M⁻¹ s⁻¹
